According to patent US20080207501A1:

What was measured:
CGRP RBA = CGRP RBA (UniProt Q16602); test: radioligand binding assay (displacement of radiolabeled CGRP)
[1] = target: calcitonin receptor (receptor binding assay); test: rCalcitonin RBA, method not described
[2] = target: CGRP receptor (membranes prepared from SK-N-MC cells) (UniProt Q16602); test: radioligand displacement, 125I-hCGRP, SK-N-MC cell membranes
[3] = target: calcitonin receptor of CHO cells; test: cell-based or functional assay
[4] = target: T1, calcitonin receptor of T47D cells (UniProt P30988); test: cell-based or functional assay
T1 sequence (looked up): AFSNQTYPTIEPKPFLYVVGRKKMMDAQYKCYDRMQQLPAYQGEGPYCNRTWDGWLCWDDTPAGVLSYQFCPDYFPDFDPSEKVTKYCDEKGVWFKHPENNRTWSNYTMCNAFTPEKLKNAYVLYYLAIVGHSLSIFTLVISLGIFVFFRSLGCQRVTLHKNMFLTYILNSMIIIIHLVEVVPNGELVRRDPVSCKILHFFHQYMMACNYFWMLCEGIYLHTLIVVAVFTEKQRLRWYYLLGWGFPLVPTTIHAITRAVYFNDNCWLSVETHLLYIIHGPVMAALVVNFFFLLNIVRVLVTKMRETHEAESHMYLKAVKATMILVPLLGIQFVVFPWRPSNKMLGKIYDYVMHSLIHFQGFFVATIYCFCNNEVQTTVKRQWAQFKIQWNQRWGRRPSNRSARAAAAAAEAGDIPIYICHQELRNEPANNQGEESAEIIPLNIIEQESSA

Amylin RBA (rat) = Amylin RBA (rat) (UniProt P32214); test: radioligand binding assay (displacement of radiolabeled amylin)
Sequence of Amylin RBA (rat) (P32214 other isoform, or with tags, fused parts or gaps, chain 1 of 2): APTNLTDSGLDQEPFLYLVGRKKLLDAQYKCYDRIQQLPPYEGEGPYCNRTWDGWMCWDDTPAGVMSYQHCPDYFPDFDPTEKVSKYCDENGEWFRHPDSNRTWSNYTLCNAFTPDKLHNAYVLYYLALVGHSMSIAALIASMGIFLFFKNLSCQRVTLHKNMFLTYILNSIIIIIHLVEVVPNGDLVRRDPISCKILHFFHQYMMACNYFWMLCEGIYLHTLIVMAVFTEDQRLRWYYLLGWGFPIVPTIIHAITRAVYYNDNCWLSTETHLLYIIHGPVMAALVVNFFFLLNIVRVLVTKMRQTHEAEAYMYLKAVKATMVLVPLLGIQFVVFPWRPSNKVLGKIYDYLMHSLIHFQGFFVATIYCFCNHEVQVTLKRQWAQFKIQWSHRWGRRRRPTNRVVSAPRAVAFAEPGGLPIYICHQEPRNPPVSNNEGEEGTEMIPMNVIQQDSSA
Sequence of Amylin RBA (rat) (Q9JJ74 27-148, chain 2 of 2, further chain): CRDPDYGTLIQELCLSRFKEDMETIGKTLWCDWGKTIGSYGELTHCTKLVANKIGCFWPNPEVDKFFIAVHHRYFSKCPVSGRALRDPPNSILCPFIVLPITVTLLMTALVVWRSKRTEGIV

Sequence of CGRP RBA (Q16602 23-461, chain 1 of 2): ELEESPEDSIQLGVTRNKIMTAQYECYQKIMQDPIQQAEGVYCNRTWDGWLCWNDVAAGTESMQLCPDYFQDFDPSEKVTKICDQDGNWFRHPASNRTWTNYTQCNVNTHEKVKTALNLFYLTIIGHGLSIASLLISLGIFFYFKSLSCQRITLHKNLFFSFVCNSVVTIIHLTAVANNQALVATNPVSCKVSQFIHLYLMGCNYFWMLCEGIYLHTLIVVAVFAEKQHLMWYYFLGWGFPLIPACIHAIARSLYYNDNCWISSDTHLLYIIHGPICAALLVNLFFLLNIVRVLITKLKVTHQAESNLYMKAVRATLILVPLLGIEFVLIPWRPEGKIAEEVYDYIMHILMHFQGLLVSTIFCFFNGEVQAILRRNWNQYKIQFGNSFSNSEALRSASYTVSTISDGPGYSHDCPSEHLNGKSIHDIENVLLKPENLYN
Sequence of CGRP RBA (O60894 27-148, chain 2 of 2, further chain): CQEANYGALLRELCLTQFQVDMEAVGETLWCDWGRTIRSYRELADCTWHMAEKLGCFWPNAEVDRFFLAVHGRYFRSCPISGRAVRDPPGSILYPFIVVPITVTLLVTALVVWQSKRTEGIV
Sequence of CGRP receptor (membranes prepared from SK-N-MC cells) (Q16602 23-461 limits assumed, chain 1 of 2): as the sequence (Q16602 23-461, chain 1 of 2) above
Sequence of CGRP receptor (membranes prepared from SK-N-MC cells) (O60894 27-148 limits assumed, chain 2 of 2, further chain): as the sequence (O60894 27-148, chain 2 of 2, further chain) above

Substance: AFP-6 [1-31]
- EC50 (CGRP RBA): 277 nM

Substance: r/h Calcitonin (peptide)
- IC50 [1]: 1.3 to 3.4 nM

Substance: r/h Amylin (from UniProt P12969 38-74) (peptide)
- IC50 [2]: 12 nM

Substance: Human CGRP α (peptide)
- EC50, cAMP (AlphaScreen), CHO cells, Average [3]: 80.4 nM
- EC50, cAMP (AlphaScreen), CHO cells, Experiment 1 [3]: 70.3 nM
- EC50, cAMP (AlphaScreen), CHO cells, Experiment 2 [3]: 81.2 nM
- EC50, cAMP (AlphaScreen), CHO cells, Experiment 3 [3]: 89.7 nM
- EC50, cAMP (AlphaScreen), T47D cells, Average [4]: 35.5 nM
- EC50, cAMP (AlphaScreen), T47D cells, Experiment 1 [4]: 11.9 nM
- EC50, cAMP (AlphaScreen), T47D cells, Experiment 2 [4]: 66.7 nM
- EC50, cAMP (AlphaScreen), T47D cells, Experiment 3 [4]: 27.8 nM

Substance: AFP-6 (1-31)
- EC50 (Amylin RBA (rat)): > 100 nM
